The text below walks through data of publication PMC2779590 (2009).

For this assay, the target named is α5β1 integrin (Homo sapiens, UniProt P08648). As to the kind of experiment: SPR. A general note: In SPR one partner is held on a chip, and binding of the other changes the refractive index at the surface.
Sequence of α5β1 integrin (P08648 42-1049, chain 1 of 2): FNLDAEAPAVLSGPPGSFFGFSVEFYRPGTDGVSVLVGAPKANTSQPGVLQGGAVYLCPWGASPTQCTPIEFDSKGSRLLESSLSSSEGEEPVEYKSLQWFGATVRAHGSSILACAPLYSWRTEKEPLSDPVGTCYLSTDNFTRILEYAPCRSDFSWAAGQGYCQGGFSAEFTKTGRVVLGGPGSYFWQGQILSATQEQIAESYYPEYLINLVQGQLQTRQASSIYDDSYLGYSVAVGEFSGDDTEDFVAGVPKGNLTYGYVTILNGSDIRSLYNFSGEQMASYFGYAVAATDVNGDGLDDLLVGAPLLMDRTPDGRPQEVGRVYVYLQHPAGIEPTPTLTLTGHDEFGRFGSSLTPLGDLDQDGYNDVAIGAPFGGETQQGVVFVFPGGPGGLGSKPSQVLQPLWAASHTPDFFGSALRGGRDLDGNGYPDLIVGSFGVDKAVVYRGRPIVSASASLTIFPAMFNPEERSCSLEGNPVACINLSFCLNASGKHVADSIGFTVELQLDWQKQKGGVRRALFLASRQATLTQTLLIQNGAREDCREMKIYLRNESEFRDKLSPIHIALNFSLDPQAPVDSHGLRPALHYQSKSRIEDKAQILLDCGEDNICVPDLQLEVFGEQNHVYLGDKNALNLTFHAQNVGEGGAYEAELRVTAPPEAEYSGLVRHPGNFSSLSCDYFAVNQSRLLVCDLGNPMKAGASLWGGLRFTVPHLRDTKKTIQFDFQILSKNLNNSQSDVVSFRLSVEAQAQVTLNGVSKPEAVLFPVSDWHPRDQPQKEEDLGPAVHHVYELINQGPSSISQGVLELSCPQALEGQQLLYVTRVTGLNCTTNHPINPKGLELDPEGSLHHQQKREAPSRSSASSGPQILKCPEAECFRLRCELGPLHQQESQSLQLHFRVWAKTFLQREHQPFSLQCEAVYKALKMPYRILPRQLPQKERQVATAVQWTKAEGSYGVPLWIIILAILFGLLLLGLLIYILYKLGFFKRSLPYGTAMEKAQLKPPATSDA
Sequence of α5β1 integrin (chain, as listed by the source, chain 2 of 2): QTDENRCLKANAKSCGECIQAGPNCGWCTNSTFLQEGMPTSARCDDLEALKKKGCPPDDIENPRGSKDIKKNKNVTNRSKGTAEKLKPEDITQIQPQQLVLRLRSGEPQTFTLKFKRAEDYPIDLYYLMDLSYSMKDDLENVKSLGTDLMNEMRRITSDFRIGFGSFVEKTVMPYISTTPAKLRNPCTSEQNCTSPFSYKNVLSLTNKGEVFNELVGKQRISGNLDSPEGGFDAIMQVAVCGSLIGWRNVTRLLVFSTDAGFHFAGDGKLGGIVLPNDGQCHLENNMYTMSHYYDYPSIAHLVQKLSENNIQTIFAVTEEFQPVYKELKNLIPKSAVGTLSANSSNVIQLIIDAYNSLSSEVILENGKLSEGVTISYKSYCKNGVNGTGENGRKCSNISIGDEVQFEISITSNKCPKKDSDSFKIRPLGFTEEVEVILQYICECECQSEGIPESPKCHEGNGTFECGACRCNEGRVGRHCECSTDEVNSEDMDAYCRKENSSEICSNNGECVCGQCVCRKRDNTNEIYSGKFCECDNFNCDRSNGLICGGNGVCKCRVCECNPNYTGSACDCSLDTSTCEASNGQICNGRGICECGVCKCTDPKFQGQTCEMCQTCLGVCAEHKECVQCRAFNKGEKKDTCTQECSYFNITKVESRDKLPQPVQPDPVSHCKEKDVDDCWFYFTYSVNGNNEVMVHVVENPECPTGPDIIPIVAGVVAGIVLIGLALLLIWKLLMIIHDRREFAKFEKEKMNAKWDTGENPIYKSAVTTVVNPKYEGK

B1: CagA (protein)
chain: MTNETIDQTRTPDQTQSQTAFDPQQFINNLQVAFIKVDNVVASFDPDQKPIVDKNDRDNRQAFDGISQLREEYSNKAIKNPTKKNQYFSDFIDKSNDLINKDNLIDVESSTKSFQKFGDQRYQIFTSWVSHQKDPSKINTRSIRNFMENIIQPPIPDDKEKAEFLKSAKQSFAGIIIGNQIRTDQKFMGVFDESLKERQEAEKNGGPTGGDWLDIFLSFIFNKKQSSDVKEAINQEPVPHVQPDIATTTTDIQGLPPEARDLLDERGNFSKFTLGDMEMLDVEGVADIDPNYKFNQLLIHNNALSSVLMGSHNGIEPEKVSLLYAGNGGFGDKHDWNATVGYKDQQGNNVATLINVHMKNGSGLVIAGGEKGINNPSFYLYKEDQLTGSQRALSQEEIRNKVDFMEFLAQNNTKLDNLSEKEKEKFQNEIEDFQKDSKAYLDALGNDRIAFVSKKDTKHSALITEFNNGDLSYTLKDYGKKADKALDREKNVTLQGSLKHDGVMFVDYSNFKYTNASKNPNKGVGATNGVSHLEAGFNKVAVFNLPDLNNLAITSFVRRNLENKLTAKGLSLQEANKLIKDFLSSNKELAGKALNFNKAVAEAKSTGNYDEVKKAQKDLEKSLRKREHLEKEVEKKLESKSGNKNKMEAKAQANSQKDEIFALINKEANRDARAIAYTQNLKGIKRELSDKLEKISKDLKDFSKSFDEFKNGKNKDFSKAEETLKALKGSVKDLGINPEWISKVENLNAALNEFKNGKNKDFSKVTQAKSDLENSVKDVIINQKVTDKVDNLNQAVSVAKAMGDFSRVEQVLADLKNFSKEQLAQQAQKNEDFNTGKNSELYQSVKNSVNKTLVGNGLSGIEATALAKNFSDIKKELNEKFKNFNNNNNGLKNSTEPIYAKVNKKKTGQVASPEEPIYTQVAKKVNAKIDRLNQIASGLGGVGQAAGFPLKRHDKVDDLSKVGLSASPEPIYATIDDLGGPFPLKRHDKVDDLSKVGRSRNQELAQKIDNLNQAVSEAKAGFFGNLEQTIDKLKDSTKKNVMNLYVESAKKVPASLSAKLDNYAINSHTRINSNIQNGAINEKATGMLTQKNPEWLKLVNDKIVAHNVGSVSLSEYDKIGFNQKNMKDYSDSFKFSTKLNNAVKDIKSGFTHFLANAFSTGYYCLARENAEHGIKNVNTKGGFQKS
Regarding B1, the Kd amounted to 0.15 nM.

The term Kd denotes the constant that tells how readily two partners part at equilibrium. A higher Kd goes with weaker binding.
